Measurements as given in paper PMC8406324, “Structural Basis for a Neutralizing Antibody Response Elicited by a Recombinant Hantaan Virus Gn Immunogen” (mBio, 2021).

Target: T1, recombinant HTNV Gn ectodomain (residues 18 to 371) (Hantaan virus (Orthohantavirus …))
T1 construct: also called N-terminal ectodomain of HTNV Gn; soluble HTNV Gn ectodomain
Assay: crystal structure
Details: both partners purified

B1: Fab nnHTN-Gn2 (Fab, V domains shown)
VH: QSLEESGGRLVTPGTPLTLTCTVSGFSLSNYNMQWVRQAPGKGLEWIGIVYTGGVAWYARWAKGRFTISRTSTTVDLKITSPTTEDTATYFCARAYTSNSDIVFDPWGPGTLVTVSS
VL: GQVLTQTPASVSAAVGGTVTIKCQASQSVSTALAWYQQKPGQRPKLLIYLASTLTSGVPSRFKGSGSGTEFTLTISGVECDDAATYYCQQGYSYSNVDNSFGGGTEVVVK
notes: also called Fab nnHTNV-Gn2
binding result: binds

B2: Fab HTN-Gn1 (Fab, V domains shown)
VH: QSLVESGGDLVKPEGSLTLTCTASGFSFSSTHWICWVRQAPGKGLEWIACIYVGNTYDSYYANWAKGRFTISKTSSTTVTLQMTTLTAADTATYFCARSGSVFGVVSLWGPGTLVTVSS
VL: GQVLTQTPASVSEPVEGTVTIKCQASQSINNWLSWYQQRPGQPPKLLIYDASTVASGVSSRFKGSGSGTEFTLTISDLECADAATYACQSYGYGISITDNSAFGGGTEVVVR
notes: also called HTN-Gn1-Fab; HTNV-Gn1-Fab
binding result: binds
